# US20140087995A1 (published 2014)
# Numbered stars: 1 amine (or outer) side, 2 acyl side, 3 side chain; on linkers, the order of the positions; unused ones are H or OH. Bridge positions count the residues as written; N and C are the ends. Side chains are listed from the residue outwards. Ends that are not written are not given here. * marks the point of attachment. C20 diacid = O=C(O)CCCCCCCCCCCCCCCCCCC(=O)*; γGlu = O=C(O)[C@H](CCC(=O)[*:2])N[*:1]; AEEA = NCCOCCOCC(=O)O
# T1: human calcitonin receptor (human, UniProt P30988 25-474)
# T1 sequence (looked up): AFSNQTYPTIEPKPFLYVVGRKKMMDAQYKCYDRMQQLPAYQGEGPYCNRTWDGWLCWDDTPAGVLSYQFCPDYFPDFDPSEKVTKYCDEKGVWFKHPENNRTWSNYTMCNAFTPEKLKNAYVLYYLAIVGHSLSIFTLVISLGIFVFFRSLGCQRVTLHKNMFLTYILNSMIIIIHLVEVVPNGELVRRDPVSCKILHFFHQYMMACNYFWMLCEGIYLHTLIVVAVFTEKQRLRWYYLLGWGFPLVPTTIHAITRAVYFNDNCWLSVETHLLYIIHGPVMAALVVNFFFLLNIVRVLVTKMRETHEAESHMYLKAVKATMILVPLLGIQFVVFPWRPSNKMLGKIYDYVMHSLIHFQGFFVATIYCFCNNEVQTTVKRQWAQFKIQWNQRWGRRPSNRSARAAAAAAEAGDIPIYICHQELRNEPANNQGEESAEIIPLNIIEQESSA
# T2: human amylin receptor (amylin 3(a) receptor: human calcitonin receptor co-expressed with RAMP-3) (human, UniProt P30988 25-474; O60896 24-148, limits assumed)
# T2 sequence (looked up) 1: T1 sequence (looked up)
# T2 sequence (looked up) 2: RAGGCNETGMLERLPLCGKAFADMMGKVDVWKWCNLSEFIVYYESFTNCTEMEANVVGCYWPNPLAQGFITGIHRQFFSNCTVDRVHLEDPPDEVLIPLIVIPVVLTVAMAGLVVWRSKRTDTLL
# B1: N^ε-[2-[2-[2-[[(4S)-4-carboxy-4-(19-carboxynonadecanoylamino)butanoyl]amino]ethoxy]ethoxy]acetyl]Lys[Arg1,Arg17,Pro21,Pro27,His35]-h-amylin (peptide)
# peptide: K([AEEA-γGlu-C20 diacid])RCNTATCATQRLANFLRHSSPNFGAIPSSTNVGSHTY-NH2
# modifications: disulfide 3-8; N-terminus assumed
# SMILES: CC[C@H](C)[C@H](NC(=O)[C@H](C)NC(=O)CNC(=O)[C@H](Cc1ccccc1)NC(=O)[C@H](CC(N)=O)NC(=O)[C@@H]1CCCN1C(=O)[C@H](CO)NC(=O)[C@H](CO)NC(=O)[C@H](Cc1c[nH]cn1)NC(=O)[C@H](CCCNC(=N)N)NC(=O)[C@H](CC(C)C)NC(=O)[C@H](Cc1ccccc1)NC(=O)[C@H](CC(N)=O)NC(=O)[C@H](C)NC(=O)[C@H](CC(C)C)NC(=O)[C@H](CCCNC(=N)N)NC(=O)[C@H](CCC(N)=O)NC(=O)[C@@H](NC(=O)[C@H](C)NC(=O)[C@@H]1CSSC[C@H](NC(=O)[C@H](CCCNC(=N)N)NC(=O)[C@@H](N)CCCCNC(=O)COCCOCCNC(=O)CC[C@H](NC(=O)CCCCCCCCCCCCCCCCCCC(=O)O)C(=O)O)C(=O)N[C@@H](CC(N)=O)C(=O)N[C@@H]([C@@H](C)O)C(=O)N[C@@H](C)C(=O)N[C@@H]([C@@H](C)O)C(=O)N1)[C@@H](C)O)C(=O)N1CCC[C@H]1C(=O)N[C@@H](CO)C(=O)N[C@@H](CO)C(=O)N[C@H](C(=O)N[C@@H](CC(N)=O)C(=O)N[C@H](C(=O)NCC(=O)N[C@@H](CO)C(=O)N[C@@H](Cc1c[nH]cn1)C(=O)N[C@H](C(=O)N[C@@H](Cc1ccc(O)cc1)C(N)=O)[C@@H](C)O)C(C)C)[C@@H](C)O
# notes: 38 residues: N-terminal extension by Lys (-1K); also called compound 45
# B2: N^ε-[(4S)-4-carboxy-4-(19-carboxynonadecanoylamino)butanoyl]Lys[Arg1,Arg17,Pro21,Pro27,His35]-h-amylin (peptide)
# peptide: K([γGlu-C20 diacid])RCNTATCATQRLANFLRHSSPNFGAIPSSTNVGSHTY-NH2
# modifications: disulfide 3-8; N-terminus assumed
# SMILES: CC[C@H](C)[C@H](NC(=O)[C@H](C)NC(=O)CNC(=O)[C@H](Cc1ccccc1)NC(=O)[C@H](CC(N)=O)NC(=O)[C@@H]1CCCN1C(=O)[C@H](CO)NC(=O)[C@H](CO)NC(=O)[C@H](Cc1c[nH]cn1)NC(=O)[C@H](CCCNC(=N)N)NC(=O)[C@H](CC(C)C)NC(=O)[C@H](Cc1ccccc1)NC(=O)[C@H](CC(N)=O)NC(=O)[C@H](C)NC(=O)[C@H](CC(C)C)NC(=O)[C@H](CCCNC(=N)N)NC(=O)[C@H](CCC(N)=O)NC(=O)[C@@H](NC(=O)[C@H](C)NC(=O)[C@@H]1CSSC[C@H](NC(=O)[C@H](CCCNC(=N)N)NC(=O)[C@@H](N)CCCCNC(=O)CC[C@H](NC(=O)CCCCCCCCCCCCCCCCCCC(=O)O)C(=O)O)C(=O)N[C@@H](CC(N)=O)C(=O)N[C@@H]([C@@H](C)O)C(=O)N[C@@H](C)C(=O)N[C@@H]([C@@H](C)O)C(=O)N1)[C@@H](C)O)C(=O)N1CCC[C@H]1C(=O)N[C@@H](CO)C(=O)N[C@@H](CO)C(=O)N[C@H](C(=O)N[C@@H](CC(N)=O)C(=O)N[C@H](C(=O)NCC(=O)N[C@@H](CO)C(=O)N[C@@H](Cc1c[nH]cn1)C(=O)N[C@H](C(=O)N[C@@H](Cc1ccc(O)cc1)C(N)=O)[C@@H](C)O)C(C)C)[C@@H](C)O
# notes: 38 residues: N-terminal extension by Lys (-1K); also called compound 44
# B3: N^-1-[(4S)-4-carboxy-4-(19-carboxynonadecanoylamino)butanoyl]-Gly[Arg1,Arg17,Pro21,Pro27]-h-amylin (peptide)
# peptide: {C20 diacid-γGlu}-GRCNTATCATQRLANFLRHSSPNFGAIPSSTNVGSNTY-NH2
# modifications: disulfide 3-8
# SMILES: CC[C@H](C)[C@H](NC(=O)[C@H](C)NC(=O)CNC(=O)[C@H](Cc1ccccc1)NC(=O)[C@H](CC(N)=O)NC(=O)[C@@H]1CCCN1C(=O)[C@H](CO)NC(=O)[C@H](CO)NC(=O)[C@H](Cc1c[nH]cn1)NC(=O)[C@H](CCCNC(=N)N)NC(=O)[C@H](CC(C)C)NC(=O)[C@H](Cc1ccccc1)NC(=O)[C@H](CC(N)=O)NC(=O)[C@H](C)NC(=O)[C@H](CC(C)C)NC(=O)[C@H](CCCNC(=N)N)NC(=O)[C@H](CCC(N)=O)NC(=O)[C@@H](NC(=O)[C@H](C)NC(=O)[C@@H]1CSSC[C@H](NC(=O)[C@H](CCCNC(=N)N)NC(=O)CNC(=O)CC[C@H](NC(=O)CCCCCCCCCCCCCCCCCCC(=O)O)C(=O)O)C(=O)N[C@@H](CC(N)=O)C(=O)N[C@@H]([C@@H](C)O)C(=O)N[C@@H](C)C(=O)N[C@@H]([C@@H](C)O)C(=O)N1)[C@@H](C)O)C(=O)N1CCC[C@H]1C(=O)N[C@@H](CO)C(=O)N[C@@H](CO)C(=O)N[C@H](C(=O)N[C@@H](CC(N)=O)C(=O)N[C@H](C(=O)NCC(=O)N[C@@H](CO)C(=O)N[C@@H](CC(N)=O)C(=O)N[C@H](C(=O)N[C@@H](Cc1ccc(O)cc1)C(N)=O)[C@@H](C)O)C(C)C)[C@@H](C)O
# notes: 38 residues: N-terminal extension by Gly (-1G); also called compound 46
# B4: N^-1-[(4S)-4-carboxy-4-(19-carboxynonadecanoylamino)butanoyl]-Gly[Arg1,Arg17,Pro21,Pro27,His35]-h-amylin (peptide)
# peptide: {C20 diacid-γGlu}-GRCNTATCATQRLANFLRHSSPNFGAIPSSTNVGSHTY-NH2
# modifications: disulfide 3-8
# SMILES: CC[C@H](C)[C@H](NC(=O)[C@H](C)NC(=O)CNC(=O)[C@H](Cc1ccccc1)NC(=O)[C@H](CC(N)=O)NC(=O)[C@@H]1CCCN1C(=O)[C@H](CO)NC(=O)[C@H](CO)NC(=O)[C@H](Cc1c[nH]cn1)NC(=O)[C@H](CCCNC(=N)N)NC(=O)[C@H](CC(C)C)NC(=O)[C@H](Cc1ccccc1)NC(=O)[C@H](CC(N)=O)NC(=O)[C@H](C)NC(=O)[C@H](CC(C)C)NC(=O)[C@H](CCCNC(=N)N)NC(=O)[C@H](CCC(N)=O)NC(=O)[C@@H](NC(=O)[C@H](C)NC(=O)[C@@H]1CSSC[C@H](NC(=O)[C@H](CCCNC(=N)N)NC(=O)CNC(=O)CC[C@H](NC(=O)CCCCCCCCCCCCCCCCCCC(=O)O)C(=O)O)C(=O)N[C@@H](CC(N)=O)C(=O)N[C@@H]([C@@H](C)O)C(=O)N[C@@H](C)C(=O)N[C@@H]([C@@H](C)O)C(=O)N1)[C@@H](C)O)C(=O)N1CCC[C@H]1C(=O)N[C@@H](CO)C(=O)N[C@@H](CO)C(=O)N[C@H](C(=O)N[C@@H](CC(N)=O)C(=O)N[C@H](C(=O)NCC(=O)N[C@@H](CO)C(=O)N[C@@H](Cc1c[nH]cn1)C(=O)N[C@H](C(=O)N[C@@H](Cc1ccc(O)cc1)C(N)=O)[C@@H](C)O)C(C)C)[C@@H](C)O
# notes: 38 residues: N-terminal extension by Gly (-1G); also called compound 47
# B5: N^ε1-[(4S)-4-carboxy-4-(19-carboxynonadecanoylamino)butanoyl]-[Arg17,Pro21,Pro27]-h-amylin (peptide)
# peptide: K([γGlu-C20 diacid])CNTATCATQRLANFLRHSSPNFGAIPSSTNVGSNTY-NH2
# modifications: disulfide 2-7; N-terminus assumed
# SMILES: CC[C@H](C)[C@H](NC(=O)[C@H](C)NC(=O)CNC(=O)[C@H](Cc1ccccc1)NC(=O)[C@H](CC(N)=O)NC(=O)[C@@H]1CCCN1C(=O)[C@H](CO)NC(=O)[C@H](CO)NC(=O)[C@H](Cc1c[nH]cn1)NC(=O)[C@H](CCCNC(=N)N)NC(=O)[C@H](CC(C)C)NC(=O)[C@H](Cc1ccccc1)NC(=O)[C@H](CC(N)=O)NC(=O)[C@H](C)NC(=O)[C@H](CC(C)C)NC(=O)[C@H](CCCNC(=N)N)NC(=O)[C@H](CCC(N)=O)NC(=O)[C@@H](NC(=O)[C@H](C)NC(=O)[C@@H]1CSSC[C@H](NC(=O)[C@@H](N)CCCCNC(=O)CC[C@H](NC(=O)CCCCCCCCCCCCCCCCCCC(=O)O)C(=O)O)C(=O)N[C@@H](CC(N)=O)C(=O)N[C@@H]([C@@H](C)O)C(=O)N[C@@H](C)C(=O)N[C@@H]([C@@H](C)O)C(=O)N1)[C@@H](C)O)C(=O)N1CCC[C@H]1C(=O)N[C@@H](CO)C(=O)N[C@@H](CO)C(=O)N[C@H](C(=O)N[C@@H](CC(N)=O)C(=O)N[C@H](C(=O)NCC(=O)N[C@@H](CO)C(=O)N[C@@H](CC(N)=O)C(=O)N[C@H](C(=O)N[C@@H](Cc1ccc(O)cc1)C(N)=O)[C@@H](C)O)C(C)C)[C@@H](C)O
# notes: also called compound 48
# Molecular target: T1, human calcitonin receptor
# Assay: cell-based or functional assay
Ratio hCT/hAmylin funct. (hCTR EC50 against hAmylin-R EC50),hCTR funct. EC50,Binder
17,10.1 nM,B1
24,4.75 nM,B2
10.2,0.899 nM,B3
6,1.32 nM,B4
17,1.97 nM,B5

# Molecular target: T2, human amylin receptor (amylin 3(a) …)
# Assay: cell-based or functional assay
row,hAmylin-R funct. EC50,Binder
1,0.594 nM,B1
2,0.198 nM,B2
3,0.088 nM,B3
4,0.222 nM,B4
5,0.116 nM,B5
